The values that follow are results of earlier work, collected in article PMC11281341.

The target of this series is HIV-1 capsid protein (CA) CA (Human immunodeficiency virus 1) (UniProt O93182).
Sequence of HIV-1 capsid protein (CA) CA (Human immunodeficiency virus 1) (O93182 133-363): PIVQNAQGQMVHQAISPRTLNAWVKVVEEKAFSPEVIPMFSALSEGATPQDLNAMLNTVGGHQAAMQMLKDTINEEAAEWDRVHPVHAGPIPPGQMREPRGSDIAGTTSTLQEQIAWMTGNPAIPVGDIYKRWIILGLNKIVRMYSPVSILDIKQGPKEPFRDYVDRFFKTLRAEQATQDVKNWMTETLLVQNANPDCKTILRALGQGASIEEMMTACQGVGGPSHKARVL

Sequence of TRIM5alpha SPRY (Q0PF16 283-497): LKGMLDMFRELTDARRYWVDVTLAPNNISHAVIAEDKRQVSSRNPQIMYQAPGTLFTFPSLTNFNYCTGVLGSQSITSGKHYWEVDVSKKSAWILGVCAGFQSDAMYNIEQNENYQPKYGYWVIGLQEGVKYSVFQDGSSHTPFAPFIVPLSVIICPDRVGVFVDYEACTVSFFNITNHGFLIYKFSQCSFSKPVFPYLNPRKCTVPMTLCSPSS

Broadly, the Kd is the equilibrium constant for the complex coming apart. TRIM5alpha SPRY (from UniProt Q0PF16): the Kd is greater than 1000 µM.
